# From PMC8854993, “Acetylation at Lysine 86 of Escherichia coli HUβ Modulates the DNA-Binding Capability of the Protein” (Frontiers in Microbiology, 2021)
# B1: 30-bp duplex with 2-nt gap (dsDNA)
# DNA 1: CCAACTTCCCTAACCCAGCTGCGATCCGTA
# DNA 2: TACGGATCGCAGC
# DNA 3: GGTTAGGGAAGTTGG
# modifications: 2-nt gap in bottom strand
# What was measured:
# [1] = biological target: HUβ(K86ac) K86ac (Escherichia coli BL21(DE3)) (UniProt P0ACF4); test: EMSA; details: 4 µM HU dimer, 1 µM DNA; versus HUβ2; p < 0.05; 2-nt gap in bottom strand; 30 mM Tris pH 7.5, 100 mM NaCl, 0.02% Tween20, 0.5 mg/ml BSA; 30-bp DNA 1 µM, 18°C 10 min, 10% PAGE in TBE; long DNA 250 ng in 15 µL, 37°C 1 h, 0.5% agarose in …
# [2] = biological target: HUα;HUβ (Escherichia coli BL21(DE3);Escherichia …, UniProt P0ACF0;P0ACF4 1-90;1-90, |); test: EMSA; heterodimer; higher affinity than homodimer; 30 mM Tris pH 7.5, 100 mM NaCl, 0.02% Tween20, 0.5 mg/ml BSA; 30-bp DNA 1 µM, 18°C 10 min, 10% PAGE in TBE; long DNA 250 ng in 15 µL, 37°C 1 h, 0.5% agarose in; details: protein: recombinant;recombinant; tags: C-terminal 6xHis;C-terminal 6xHis; copies: 1;1; three strands; 2-nt gap in bottom strand between S16 and S17; blunt outer ends
# Chain of HUα;HUβ (P0ACF0 whole entry, chain 1 of 2): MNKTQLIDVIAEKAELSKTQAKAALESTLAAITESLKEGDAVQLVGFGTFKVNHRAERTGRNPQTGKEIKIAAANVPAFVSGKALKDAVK
# Chain of HUα;HUβ (P0ACF4 whole entry, chain 2 of 2): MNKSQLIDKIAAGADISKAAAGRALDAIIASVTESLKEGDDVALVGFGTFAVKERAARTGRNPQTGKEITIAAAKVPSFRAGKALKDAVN
# Chain of HUβ(K86ac) K86ac (Escherichia coli BL21(DE3)) (P0ACF4 whole entry): as the sequence (P0ACF4 whole entry, chain 2 of 2) above
Molecule,binding signal (fold free DNA) [1],binding result [2]
CCAACTTCCCTAACCCAGCTGCGATCCGTA / TACGGATCGCAGC / GGTTAGGGAAGTTGG [30-bp duplex with 2-nt gap],> 4,–
B1,–,binds
